In publication PMC4368157, “The Interaction Affinity between Vascular Cell Adhesion Molecule-1 (VCAM-1) and Very Late Antigen-4 (VLA-4) Analyzed by Quantitative FRET” (PLoS ONE, 2015) one finds Kd data, which are given here for 2 molecules.

Experiment [1] has as its target T1, Alexa Fluor 488-VLA-4 conjugate (human recombinant Very late antigen-4, soluble form) (human, UniProt P13612 35-977; P05556 21-728, Alexa Fluor 488 on aliphatic amine groups (amine terminus, ε-amino groups of lysines); F/P ratio of the conjugate 3.0 ± 0.8; sites and chain not stated | Alexa Fluor 488 on aliphatic amine groups …).
T1 construct: integrin α4 subunit (CD49d) of VLA-4, human, recombinant soluble form; integrin β1 subunit (CD29) of VLA-4, human, recombinant soluble form; also called AF488-VLA-4; A488-VLA-4; source: bought: R&D Systems; conjugated with Alexa Fluor 488 succinimidyl ester, dialysed
As to the kind of experiment: FRET or BRET; in solution, steady state; donor AF488-VLA-4 fixed at 350 nM, acceptor AF546-VCAM-1 titrated up to 850 nM; PBS with 1 mM EGTA, 2 mM MgCl2, pH 7.4, 30 minutes, 96-well plate; excitation 470 nm; fit assumes one-to-one interaction. The conditions noted are these: both partners purified.

The target of experiment [2] is T2, human recombinant VLA-4 (Very late antigen-4, soluble form, without fluorophore) (human, UniProt P13612 35-977; P05556 21-728).
T2 construct: integrin α4 subunit (CD49d) of VLA-4, human, recombinant soluble form; integrin β1 subunit (CD29) of VLA-4, human, recombinant soluble form; Same bought protein as in m1, not conjugated; also called CD49d/CD29; α4β1; source: bought: R&D Systems
T2 sequence (P13612 35-977, chain 1 of 2): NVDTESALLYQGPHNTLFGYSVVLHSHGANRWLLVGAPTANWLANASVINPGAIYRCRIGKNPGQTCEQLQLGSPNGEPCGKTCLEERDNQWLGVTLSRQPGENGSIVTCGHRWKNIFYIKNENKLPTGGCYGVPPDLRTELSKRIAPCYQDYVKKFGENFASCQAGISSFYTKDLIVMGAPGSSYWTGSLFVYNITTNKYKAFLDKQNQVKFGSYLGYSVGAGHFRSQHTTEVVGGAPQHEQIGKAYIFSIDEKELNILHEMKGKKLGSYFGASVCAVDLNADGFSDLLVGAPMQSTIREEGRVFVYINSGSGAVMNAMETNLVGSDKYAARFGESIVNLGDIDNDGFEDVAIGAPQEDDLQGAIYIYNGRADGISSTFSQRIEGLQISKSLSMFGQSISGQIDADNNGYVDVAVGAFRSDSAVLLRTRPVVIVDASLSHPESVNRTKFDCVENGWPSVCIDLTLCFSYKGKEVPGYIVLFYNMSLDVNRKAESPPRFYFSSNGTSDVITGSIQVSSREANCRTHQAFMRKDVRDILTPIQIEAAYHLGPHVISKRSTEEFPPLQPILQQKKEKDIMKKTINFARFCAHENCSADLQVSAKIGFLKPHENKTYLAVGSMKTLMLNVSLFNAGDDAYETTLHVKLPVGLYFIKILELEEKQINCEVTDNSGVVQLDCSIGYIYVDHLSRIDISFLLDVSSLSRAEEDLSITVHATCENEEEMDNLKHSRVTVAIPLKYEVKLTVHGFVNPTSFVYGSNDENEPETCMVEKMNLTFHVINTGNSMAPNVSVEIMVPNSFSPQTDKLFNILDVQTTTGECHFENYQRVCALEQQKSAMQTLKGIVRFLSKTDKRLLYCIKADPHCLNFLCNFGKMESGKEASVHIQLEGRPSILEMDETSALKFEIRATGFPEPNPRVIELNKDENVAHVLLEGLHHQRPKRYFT
T2 sequence (P05556 21-728, chain 2 of 2): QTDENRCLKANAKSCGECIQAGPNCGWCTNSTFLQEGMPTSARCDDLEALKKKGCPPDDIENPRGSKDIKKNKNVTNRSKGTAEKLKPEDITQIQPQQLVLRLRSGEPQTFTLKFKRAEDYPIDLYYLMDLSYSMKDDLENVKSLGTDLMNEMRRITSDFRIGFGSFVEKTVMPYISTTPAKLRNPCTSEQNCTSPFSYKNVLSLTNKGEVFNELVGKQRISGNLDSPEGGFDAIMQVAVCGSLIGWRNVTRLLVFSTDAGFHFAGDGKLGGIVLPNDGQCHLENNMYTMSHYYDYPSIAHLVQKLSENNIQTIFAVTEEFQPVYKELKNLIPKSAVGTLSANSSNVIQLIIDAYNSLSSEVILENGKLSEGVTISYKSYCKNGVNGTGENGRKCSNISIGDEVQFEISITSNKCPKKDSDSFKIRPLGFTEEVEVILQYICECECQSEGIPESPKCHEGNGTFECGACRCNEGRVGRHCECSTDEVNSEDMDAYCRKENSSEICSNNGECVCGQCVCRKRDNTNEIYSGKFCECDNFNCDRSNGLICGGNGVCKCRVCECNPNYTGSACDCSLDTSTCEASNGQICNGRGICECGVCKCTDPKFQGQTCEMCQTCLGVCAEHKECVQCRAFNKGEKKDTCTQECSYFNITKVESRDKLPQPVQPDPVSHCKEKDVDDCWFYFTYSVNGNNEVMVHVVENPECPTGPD
As to the kind of experiment: SPR; BIAcore 3000, CM5 chip; VCAM-1Fc captured by immobilised anti-human IgG (Fc); VLA-4 flowed at 100, 150, 400, 450 and 500 nM; PBS with 1 mM EGTA and 2 mM Mg2+; 5 μl/min; Langmuir model. The following applies: both partners purified. (In general: In SPR one partner is held on a chip, and binding of the other changes the refractive index at the surface.)

T1 sequence (P13612 35-977, chain 1 of 2): as the sequence (P13612 35-977, chain 1 of 2) above
T1 sequence (P05556 21-728, chain 2 of 2): as the sequence (P05556 21-728, chain 2 of 2) above

B1: Alexa Fluor 546-VCAM-1 conjugate (human recombinant Vascular Cell Adhesion Molecule-1, soluble form) (ligand, UniProt P19320 25-698, looked up)
chain: FKIETTPESRYLAQIGDSVSLTCSTTGCESPFFSWRTQIDSPLNGKVTNEGTTSTLTMNPVSFGNEHSYLCTATCESRKLEKGIQVEIYSFPKDPEIHLSGPLEAGKPITVKCSVADVYPFDRLEIDLLKGDHLMKSQEFLEDADRKSLETKSLEVTFTPVIEDIGKVLVCRAKLHIDEMDSVPTVRQAVKELQVYISPKNTVISVNPSTKLQEGGSVTMTCSSEGLPAPEIFWSKKLDNGNLQHLSGNATLTLIAMRMEDSGIYVCEGVNLIGKNRKEVELIVQEKPFTVEISPGPRIAAQIGDSVMLTCSVMGCESPSFSWRTQIDSPLSGKVRSEGTNSTLTLSPVSFENEHSYLCTVTCGHKKLEKGIQVELYSFPRDPEIEMSGGLVNGSSVTVSCKVPSVYPLDRLEIELLKGETILENIEFLEDTDMKSLENKSLEMTFIPTIEDTGKALVCQAKLHIDDMEFEPKQRQSTQTLYVNVAPRDTTVLVSPSSILEEGSSVNMTCLSQGFPAPKILWSRQLPNGELQPLSENATLTLISTKMEDSGVYLCEGINQAGRSRKEVELIIQVTPKDIKLTAFPSESVKEGDTVIISCTCGNVPETWIILKKKAETGDTVLKSIDGAYTIRKAQLKDAGVYECESKNKVGSQLRSLTLDVQGRENNKDYFSPE
modifications: Alexa Fluor 546 on aliphatic amine groups (amine terminus, ε-amino groups of lysines); F/P ratio 0.60 ± 0.02; sites not stated
notes: Vascular Cell Adhesion Molecule-1 (VCAM-1/CD106), human, recombinant soluble form; also called AF546-VCAM-1; CD106; source: bought: R&D Systems; conjugated with Alexa Fluor 546 succinimidyl ester, dialysed
Regarding B1, the Kd in experiment [1] turned out to be 0.0418 µM.

B2: human recombinant VCAM-1 Fc chimera (Fc fusion, UniProt P19320 25-698, looked up)
chain: B1 chain
notes: Vascular Cell Adhesion Molecule-1 (VCAM-1/CD106), human, recombinant soluble form fused to Fc; source: bought: R&D Systems
As for B2, the Kd in experiment [2] was 0.0396 ± 0.00178 µM.

As a reminder, the Kd is the equilibrium constant for the complex coming apart.
